From the nanobody polyreactivity screen of Harvey et al. (2022)

Experiment: yeast display, Sf9 membrane polyspecificity reagent, FACS + sequencing; frameworks hold sequencing errors
Method in brief: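 A synthetic nanobody library was expressed on Saccharomyces cerevisiae BJ5465 by galactose induction for 36–48 hours. The library was stained for 1 hour at 4 °C with 10% biotinylated, detergent-solubilized Sf9 membrane reagent and enriched with streptavidin microbeads before FACS. Low and high (top ~1%) gates were set on anti-HA fluorescence for expression and streptavidin fluorescence for reagent binding, and each polyreactivity label reflects the gate of origin.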

Sequence | polyreactivity (PSR sort gate)
QVQLVESGGGIVQAGGSLRLSCAASGSTGFNTMGWYRQAPGKERELVAAIRATGGSTYYADSVKGRFTISRDNAKNTVYLQMNSLKPEDTAVYYCAAKWFRQYLRQDRYYYWGQGTQVTVSS | high polyreactivity
QVQLVESGGGIVQAGGSLRLSCAASGSTLGSNSMGWYRQAPGKERELVAAITWSGGTTYYADSVKGRFTISRDNAKNTVYLQMNSLKPEYTAVYYCATGQSVIYRYEYWGQGTQVTVSS | low polyreactivity
QVQLVESGGGIVQAGGSLRLSCAASGSTLRWNAMGWYRQAPGKERELVAAIRWSTGSTYYADSVKGRFTISRDNAKNTVYLQMNSLKPEDTAVYYCAARQGRARTPNDHNYWGQGTKVTVSS | high polyreactivity
QVQLVESGGGIVQAGGSLRLSCAASGSTLYLYVMGWYRQAPGKERELVAVISSSSGRTYYADSVKGRFTISRDNAKNTVYLQMNSLKPEDTAVYYCAADNYVGYHWYNYWGQGTQVTVSS | high polyreactivity
QVQLVESGGGIVQAGGSLRLSCAASGSTYYGYTMGWYRQAPGKERELVAVITSGGSTYYADSVKGRFTISRDNAKNTVYLQMNILKPEDRAVYYCAKRYGYPAYGRPWRIGRTYDYWGQGTQVTVSS | low polyreactivity
QVQLVESGGGIVQAGGSLRLSCAASGYTFPRYAMGWYRQAPGKERELVAAITSRGGSTYYADSVKGRFTISRDNAKNTVYLQMNSLKPEDTAVYYCAVLGFGALDFDSWGQGTQVTVSS | high polyreactivity
QVQLVESGGGIVQAGGSLRLSCAASGYTYPRYTMGWYRQAPGKERELVAVIRRSGGTHYADSVKGRFTISRDNAKNTVYLHMNRLKPEETAVYYCAVVSFLPNIPYGYWGQGTQVTVSS | high polyreactivity
QVQLVESGGGIVQAGGSLRLSCADSGFTFAFYAMGRYRQAPRKERELVAAISSGGGNTYYADSVKGRFTISRDNAKNTVYLQMNSLNPEDTAVYYCATRYISQGGYWGQGTQVTVSS | high polyreactivity
QVQLVESGGGIVQAGGSLRLSCAGSGGILGDNTMGWYGHAPGKERELGASITRGGTTNYADSLTGRFTISREHAKNTVYFQKISLKPVDTAVYYCNAAVERFGDSPDYDYWGQGTQVTVSS | low polyreactivity
QVQLVESGGGIVQAGGSLRLSCASSGFTLGLYAMGWYRQAPGKERELVAVISGRGSRTYYADSVKGRFTISRDNAKNTVYLQMNSLKPEDTAVYYCAASYRTYYRTGYDYWGQGTQVTVSS | high polyreactivity
QVQLVESGGGIVQAGGSLRLSCPASGLTFIYYAMGWYRQAPGKERELVAAITRGTSTYYADSVKGRFTISRDNAKNTVYLQMNSLKPEDTAVYDCAAKSRRVRTYNYWGQGTQVTVSS | high polyreactivity
QVQLVESGGGIVQAGGSLRLSRAASGFTFPFYAMRWYRQAHGKERELVAAISQSGVRTYYADSVKGRFTISRDNAKNSVYLLMNSLKPEDTAVYYCAATSLNTRTGYWGQGTQVTVSS | high polyreactivity
QVQLVESGGGIVQAGGSLRLSSAATGRIYAKNAMGWYRQAPGKERELVAAINHSVGSTYYADSVKARFTISRDNANNTVYLQMISLIQEDTAVYYCATLQGDSSSQYDYWGQGTQVTVSS | high polyreactivity
QVQLVESGGGIVQAGGSLRLTCAASGRIFIYYYMGWYRQAPGKERELVADITLSGGSTYYADSVKGRFTISRDNAKNNVYLQMTSLKPEDTAVYYCAATRRYWKIFFGDGDYWGQATQVTVSS | high polyreactivity
QVQLVESGGGIVQAGGSLRVSCAASGRTFWGYAMGWYRQAPGKERELVAALNKSGGSTYYADSVKGRFTISRDNAKNTVYLQKNSLNPEDTAVYYCIAVYYWYKGDYWGQGTQVTVSS | high polyreactivity
QVQLVESGGGIVQAGRSLRVSCADSGSAFPRYDMGWYRPAPGKERELVAAISRGGSTNYADSVKGRFTLSRDNATNSVSLQMFCLIPVDPAVYYCAAQIFESAYGIVYWGQRTQVTVSS | low polyreactivity
QVQLVESGGGIVQAGVSLRLSCAASGITFIRYAMGWYRQAPGKERELVAAISSSGGSTYYADSVKGRFTISRDNAKNTVYLQMISLKPEDTAVYYCAARIPDRQDGYGYWGQGTQVTVSS | high polyreactivity
